# System: Escherichia coli TOP10
# Experiment: shrunken log2 fold change of peptide-encoding DNA abundance (4.5 h post-induction vs induction); higher = less antimicrobial activity (less host growth inhibition)
# Details: time post-induction: 4.5 h; library: site-saturation at positions 5, 18, 19, 20
# 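Note: peptides expressed intracellularly from a pBAD plasmid library in pooled LB shake-flask culture, induced with 0.3% L-arabinose, DNA abundance read by NGS, three biological replicates, DESeq2 with apeglm shrinkage.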
row,Sequence,shrunken log2 fold change
1,RRIRNRPPRLPRPRPRPGKYPRP,-0.117
2,RRIRQRPPRLPRPRPRPMSGPRP,0.076
3,RRIRVRPPRLPRPRPRPSPFPRP,-0.442
4,RRIRERPPRLPRPRPRPGLSPRP,-0.113
5,RRIRNRPPRLPRPRPRPEREPRP,0.256
6,RRIRDRPPRLPRPRPRPDLMPRP,0.043
7,RRIRVRPPRLPRPRPRPPYSPRP,-0.384
8,RRIRDRPPRLPRPRPRPINCPRP,-0.0287
9,RRIRERPPRLPRPRPRPANEPRP,-0.916
10,RRIRVRPPRLPRPRPRPVPMPRP,0.0779
11,RRIRWRPPRLPRPRPRPGNNPRP,0.1
12,RRIRCRPPRLPRPRPRPQYIPRP,-0.738
13,RRIRCRPPRLPRPRPRPQQRPRP,0.0521
14,RRIRTRPPRLPRPRPRPMEQPRP,-0.189
15,RRIRGRPPRLPRPRPRPPGMPRP,0.989
16,RRIRARPPRLPRPRPRPYILPRP,-0.983
17,RRIRERPPRLPRPRPRPFGGPRP,-0.0945
18,RRIRLRPPRLPRPRPRPLLWPRP,0.195
19,RRIRERPPRLPRPRPRPVGFPRP,0.0681
20,RRIRGRPPRLPRPRPRPGMVPRP,1.46
21,RRIRQRPPRLPRPRPRPFIMPRP,-1.46
22,RRIRTRPPRLPRPRPRPLNFPRP,-0.446

row,Sequence,shrunken log2 fold change
1,RRIRSRPPRLPRPRPRPQVLPRP,-0.0779
2,RRIRMRPPRLPRPRPRPNVNPRP,0.148
3,RRIRMRPPRLPRPRPRPKYCPRP,0.0472
4,RRIRVRPPRLPRPRPRPMASPRP,-0.01
5,RRIRYRPPRLPRPRPRPEVAPRP,-0.0541
6,RRIRERPPRLPRPRPRPHHIPRP,-0.0669
7,RRIRWRPPRLPRPRPRPFTLPRP,3.06
8,RRIRGRPPRLPRPRPRPDLDPRP,1.21
9,RRIRDRPPRLPRPRPRPSQKPRP,-0.0691
10,RRIRPRPPRLPRPRPRPRVMPRP,0.327
11,RRIRLRPPRLPRPRPRPHCPPRP,0.0666
12,RRIRHRPPRLPRPRPRPRWKPRP,0.00489
13,RRIRKRPPRLPRPRPRPFADPRP,0.00902
14,RRIRNRPPRLPRPRPRPVLEPRP,0.183
15,RRIRHRPPRLPRPRPRPNYGPRP,-0.0744
16,RRIRMRPPRLPRPRPRPRQFPRP,0.582
17,RRIRGRPPRLPRPRPRPGQDPRP,0.605
18,RRIRWRPPRLPRPRPRPCVPPRP,-0.035
19,RRIRSRPPRLPRPRPRPMWCPRP,0.136
20,RRIRNRPPRLPRPRPRPIFPPRP,-0.281
21,RRIRWRPPRLPRPRPRPVVFPRP,0.0685
22,RRIRGRPPRLPRPRPRPNKCPRP,0.139

row,Sequence,shrunken log2 fold change
1,RRIRRRPPRLPRPRPRPRLKPRP,0.231
2,RRIRCRPPRLPRPRPRPWCQPRP,-0.32
3,RRIRGRPPRLPRPRPRPIAQPRP,0.838
4,RRIRHRPPRLPRPRPRPRQIPRP,-0.0442
5,RRIRTRPPRLPRPRPRPTIIPRP,-0.786
6,RRIRQRPPRLPRPRPRPRLHPRP,0.0368
7,RRIRVRPPRLPRPRPRPICTPRP,-0.00144
8,RRIRKRPPRLPRPRPRPKFKPRP,0.241
9,RRIRNRPPRLPRPRPRPCDVPRP,0.0235
10,RRIRPRPPRLPRPRPRPNFKPRP,-0.225
11,RRIRQRPPRLPRPRPRPMNHPRP,-0.337
12,RRIRLRPPRLPRPRPRPLPFPRP,-0.289
13,RRIRYRPPRLPRPRPRPLIIPRP,-1.2
14,RRIRVRPPRLPRPRPRPMKKPRP,0.0174
15,RRIRVRPPRLPRPRPRPGYAPRP,0.0532
16,RRIRGRPPRLPRPRPRPCDVPRP,-0.014
17,RRIRDRPPRLPRPRPRPCVTPRP,0.163
18,RRIRRRPPRLPRPRPRPNTCPRP,0.0105
19,RRIRERPPRLPRPRPRPVKYPRP,-0.0311
20,RRIRTRPPRLPRPRPRPYWEPRP,-0.0372
21,RRIRERPPRLPRPRPRPDMFPRP,-0.0153
22,RRIRVRPPRLPRPRPRPLQYPRP,1.72

row,Sequence,shrunken log2 fold change
1,RRIRERPPRLPRPRPRPQDWPRP,-0.206
2,RRIRDRPPRLPRPRPRPRKYPRP,-0.283
3,RRIRSRPPRLPRPRPRPCFAPRP,0.598
4,RRIRSRPPRLPRPRPRPILCPRP,-0.35
5,RRIRFRPPRLPRPRPRPPKTPRP,0.0214
6,RRIRWRPPRLPRPRPRPRGMPRP,0.313
7,RRIRSRPPRLPRPRPRPHTGPRP,-0.703
8,RRIRARPPRLPRPRPRPRNHPRP,0.0958
9,RRIRYRPPRLPRPRPRPYHRPRP,-0.236
10,RRIRSRPPRLPRPRPRPMCTPRP,0.0289
11,RRIRWRPPRLPRPRPRPWFHPRP,-0.125
12,RRIRCRPPRLPRPRPRPPEYPRP,-0.319
13,RRIRIRPPRLPRPRPRPEVWPRP,0.217
14,RRIRYRPPRLPRPRPRPSMAPRP,-0.572
15,RRIRIRPPRLPRPRPRPQRTPRP,0.0834
16,RRIRRRPPRLPRPRPRPMFSPRP,-0.0418
17,RRIRLRPPRLPRPRPRPQQEPRP,0.0119
18,RRIRYRPPRLPRPRPRPPPDPRP,0.7
19,RRIRWRPPRLPRPRPRPFVNPRP,-0.483
20,RRIRGRPPRLPRPRPRPKAKPRP,0.017
21,RRIRQRPPRLPRPRPRPVMWPRP,0.448
22,RRIRRRPPRLPRPRPRPNCQPRP,0.0764

row,Sequence,shrunken log2 fold change
1,RRIRDRPPRLPRPRPRPIDEPRP,0.0126
2,RRIRARPPRLPRPRPRPAPWPRP,0.632
3,RRIRTRPPRLPRPRPRPGQKPRP,0.0923
4,RRIRVRPPRLPRPRPRPFDAPRP,0.0132
5,RRIRLRPPRLPRPRPRPNMLPRP,-0.58
6,RRIRRRPPRLPRPRPRPTDLPRP,-0.162
7,RRIRYRPPRLPRPRPRPGTCPRP,-0.729
8,RRIRGRPPRLPRPRPRPSCDPRP,0.543
9,RRIRRRPPRLPRPRPRPCNNPRP,-0.368
10,RRIRIRPPRLPRPRPRPDAHPRP,-0.136
11,RRIRNRPPRLPRPRPRPGAVPRP,0.248
12,RRIRARPPRLPRPRPRPVCFPRP,0.489
13,RRIRMRPPRLPRPRPRPSCVPRP,0.22
14,RRIRKRPPRLPRPRPRPGEFPRP,0.242
15,RRIRVRPPRLPRPRPRPVGWPRP,0.77
16,RRIRRRPPRLPRPRPRPMGCPRP,-0.0336
17,RRIRERPPRLPRPRPRPFLHPRP,-0.332
18,RRIRMRPPRLPRPRPRPWMYPRP,-0.0417
19,RRIRLRPPRLPRPRPRPQQWPRP,-0.0673
20,RRIRARPPRLPRPRPRPHWYPRP,0.157
21,RRIRQRPPRLPRPRPRPVMGPRP,0.0224

# — the supplement of paper PMC9112550, “Optimization of the antimicrobial peptide Bac7 by deep mutational scanning” (BMC Biology, 2022)
